How the values were obtained:
[1] = substrate: N#C/N=C1\SCCN1Cc1ccc(Cl)nc1; assay: LC-MS/MS of metabolites, microsomes with recombinant P450/CPR, Michaelis-Menten fit; type: biochemical, Bombus terrestris; conditions: NADPH regeneration system, 30 °C, 1 h, substrate 3.1-200 μM, house fly CPR co-expressed
[2] = substrate: C/C(=N\C#N)N(C)Cc1ccc(Cl)nc1; assay: as above; type: biochemical, Bombus terrestris; conditions: NADPH regeneration system, 30 °C, 1 h, substrate 3.1-200 μM, house fly CPR co-expressed

B1: CYP9Q6 (Bombus terrestris audax) (protein)
chain: MEYLSLGLFLIAILIAIYYCATKNHNLFKKHGILHIPPMPLFGNMGSFFAKRSTLQDTILEAYELHPEAKYVGIYESLTPIIVLRDLDLIKSVNMKNFDHFTDHRNFVFKDMDPIFAGMLFSMKGEQWKEQRSILSLAFTSNKVKDMFNLMSECATRYANYLSNLAENEREMEMRDLLTKYTNDVIATCVYGVSVDTIKNPKNVFYTYGKSTTFTSFKKDMAMLAQRNLPWLAKLFQLRFLEKHIAKFFTEQVINTIEERKQNGTYRSDILQLFIDVNDKKVPGKGMSTENMVNHAFSLFFGGTDSVATQTSFLFYLLAENPEILKRLQEEIDETLENNNGQLTYDAIQKMKYLDAMINEAMRLQPITVFLDRLCVKDFELPPALPGEKPFTVKAGMNIWIPVDAIHHDPKHYENPQKFDPDRFLENGKKIINSGAFMPFGLGPRICIGNRFALTEIKVLLCHILAKCNVKIGSKMLLPLQYEEGVITAYAKNGFWLNVEPREHSYCTSQTNGTTKHLSNGNCRN
notes: with NADPH--cytochrome P450 reductase (Musca domestica, house fly)
**Q.** With B1 as the protein, how does the Km [1] read?
**A.** 15.83 µM

**Q.** What about the Km [2] of the same protein?
**A.** 27.32 µM

Source: article PMC6675907, “Identification and functional characterisation of a novel N-cyanoamidine neonicotinoid metabolising cytochrome P450, CYP9Q6, from the buff-tailed bumblebee Bombus terrestris” (Insect Biochemistry and Molecular Biology, 2019)
